Measured values as given in IntAct's records for PubMed 23813973.

Target: dnm1l_human DNM1L (UniProt O00429)
Sequence (O00429 whole entry): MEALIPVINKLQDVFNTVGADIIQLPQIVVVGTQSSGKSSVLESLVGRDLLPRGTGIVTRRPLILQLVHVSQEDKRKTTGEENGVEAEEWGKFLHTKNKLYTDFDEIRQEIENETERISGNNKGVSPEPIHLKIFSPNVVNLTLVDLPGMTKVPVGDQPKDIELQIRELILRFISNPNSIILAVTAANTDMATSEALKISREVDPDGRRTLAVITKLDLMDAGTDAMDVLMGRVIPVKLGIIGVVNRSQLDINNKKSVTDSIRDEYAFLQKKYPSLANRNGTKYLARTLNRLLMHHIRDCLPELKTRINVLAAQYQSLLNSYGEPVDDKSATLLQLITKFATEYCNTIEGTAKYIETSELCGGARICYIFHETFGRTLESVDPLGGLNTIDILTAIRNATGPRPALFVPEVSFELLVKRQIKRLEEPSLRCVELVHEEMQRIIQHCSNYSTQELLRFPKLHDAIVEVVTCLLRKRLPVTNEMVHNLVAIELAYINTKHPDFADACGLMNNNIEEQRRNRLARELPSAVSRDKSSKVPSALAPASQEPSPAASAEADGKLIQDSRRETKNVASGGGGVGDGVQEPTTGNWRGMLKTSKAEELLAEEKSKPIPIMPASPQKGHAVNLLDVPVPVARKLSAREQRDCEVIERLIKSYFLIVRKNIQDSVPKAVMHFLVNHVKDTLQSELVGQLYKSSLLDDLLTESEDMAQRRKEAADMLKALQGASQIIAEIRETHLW

effect of a mutation on the interaction: decreasing interaction
Substance: Leucine-rich repeat serine/threonine-protein kinase 2 (Homo sapiens), Q5S007 K1906A;D1994A;D2017A
